In this experiment the target is Biotinylated human Norrin K58N (disease-associated mutation) (human, UniProt Q00604 25-133, K58N, biotin on the C-terminal BirA recognition sequence (in vivo biotinylation)). As to the kind of experiment: SPR. A general note: SPR reads the build-up and loss of mass on a sensor chip optically.

From article PMC4497409 (2015) come the findings set out here.

Biotinylated human Norrin K58N (disease-associated mutation), sequence (Q00604 25-133 K58N): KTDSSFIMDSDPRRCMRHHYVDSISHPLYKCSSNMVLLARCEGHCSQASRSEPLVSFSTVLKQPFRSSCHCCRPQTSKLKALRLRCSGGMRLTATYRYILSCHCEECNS

B1: Frizzled4 cysteine-rich domain (Fz4CRD), human (domain or fragment)
chain: ERRCDPIRISMCQNLGYNVTKMPNLVGHELQTDAELQLTTFTPLIQYGCSSQLQFFLCSVYVPMCTEKINIPIGPCGGMCLSVKRRCEPVLKEFGFAWPESLNCSKFPPQNDHNHMCMEGPGDEEVPLPHKTPIQPGE
modifications: N-linked glycans at Asn59 and Asn144 (full, or cut to N-acetylglucosamine by Endo-F1)
As to B1, binding was characterised by a dissociation constant (Kd) of 1.24 µM.
